Biological target: HER2-ECD (recombinant human HER2/ErbB2/CD340) (human, UniProt P04626 23-652)
Test: electrochemical aptasensor (DPV); Rh-NPs/rGONs graphite electrode; linear 10-500 ng/mL; LOD 0.665 ng/mL (0.667 in abstract), not a Kd; DPV in 0.1 M PBS pH 7.4, 5.0 mM K4[Fe(CN)6]/K3[Fe(CN)6] (1:1), 0.1 M KCl; 50 nM aptamer immobilized; 40 min protein incubation; BSA-blocked; binding temperature not stated
Conditions: protein: commercial; predicted double stem-loop; text also claims G-quadruplex

B1: anti-HER2 aptamer (ssDNA)
DNA: GGGCCGTCGAACACGAGCATGGTGCGTGGACCTAGGATGACCTGAGTACTGTCC
modifications: 5' NH2-(CH2)6, amide-coupled to MPA on electrode
- binding result: binds

Reference: paper PMC8885668, “A high-performance electrochemical aptasensor based on graphene-decorated rhodium nanoparticles to detect HER2-ECD oncomarker in liquid biopsy”
